Assay results: patent US20020106724A1 (RIKEN, published 2002)

Biological target: T1, GST alone (UniProt P08515 1-218 = GST)
T1 construct: Control protein in the pull-downs; also called purified GST; glutathione-S-transferase
Test: pull-down of purified His6-tagged fragment with GST fusions, Western blot with anti-Xpress antibody
Experimental: A His₆-tagged recombinant protein comprising a C-terminal region of SYNCRIP (amino acids 401-561) was expressed in E. coli using pREST plasmid (Invitrogen). The recombinant protein was recovered from inclusion bodies by using a denaturing solution (6 M guanidine-HCl, 10 mM Tris-HCl (pH 8.0), 0.5 M NaCl, 1 mM β-mercapto-ethanol) and purified with ProBond resin. The denatured recombinant protein was refolded by dialysis against 10 mM Tris-HCl (pH 8.0), 10 mM β-mercaptoethanol, 0.1 M NaCl and 1 mM EDTA, with gradual decrease of urea concentration from 6 M to 0.001 M. The dialysate was centrifuged at 12,000 rpm at 4° C. for 20 min to remove the malfolded part and insoluble matter. After aliquots were incubated with various GST-fusion proteins with one of the Syt-II C2 domains, bound proteins were recovered and subjected to Western blotting using anti-Xpress antibody (Invitrogen).

T1 sequence (P08515 whole entry): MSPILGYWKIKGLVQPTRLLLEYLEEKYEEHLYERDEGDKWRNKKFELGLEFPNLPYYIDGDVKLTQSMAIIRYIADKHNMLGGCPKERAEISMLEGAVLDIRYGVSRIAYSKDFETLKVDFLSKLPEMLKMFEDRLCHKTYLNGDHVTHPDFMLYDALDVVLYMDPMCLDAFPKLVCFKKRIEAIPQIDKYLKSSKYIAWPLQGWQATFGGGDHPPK

- binding result: no binding
B1: His6-tagged recombinant protein comprising a C-terminal region of SYNCRIP (amino acids 401-561) (other, not shown: small tags and cut ends)
chain: IEIVFAKPPDQKRKERKAQRQAAKNQMYDDYYYYGPPHMPPPTRGRGRGGRGGYGYPPDYYGYEDYYDYYGYDYHNYRGGYEDPYYGYEDFQVGARGRGGRGARGAAPSRGRGAAPPRGRAGYSQRGGPGSARGVRGARGGAQQQRGRGGKGVEAGPDLLQ
notes: also called C-terminal region of SYBCRIP
